This data set can be described thus: soluble on expression in E. coli; label from the status in PepcDB or PDB records.
Consider “SSSSSSPAIEPDTPDLICQLDNVQGMVDALTCVRWKRHQDALVELSEHGIVLIVEESGCLQAKVYLQRELFTKYEYGAQGRPRFGISLGLLVDCLNTFSSPGHSNTIEIKYPGPDMELLLKSVDTLNSCIYSEIRTRIPETVTWDYNFEQAGIAPLTFTVKSAALKEAIDDLEWPGSSVQISLQKEPPCVIFRGEGHGDLQIDFMYYANTDLLLAFHCDTEVSYGYKYKFLKATTANIPGNVVRENRRSKLTIGRGGMLKVQHLVSVSKALAPQVESAGYQPPSRIAYIEFFVKPEEPAD”, for which the “soluble on expression in E. coli” value is given as “soluble”. Under “GMTTNTIMEQEARTAPQKIAEQLLANDAITESLGSVLREFKPKFVMIVGRGSSDHAGVFAKYLFEIEASIPTFAAAPSVASVYGKTLKLAGGLVIVISQSGRSPDILAQARMAKNAGAFCVALVNDETAPIKDIVDVVIPLRAGEEKAVAATKSYLATLSALLQVAAKWTQNESLVEAVNSLPQALQAAVDAEPQLRAGSLTDVKNLVVLGRGFGYAVSKEIALKLKEVCAIHAEAFSSAEFLHGPVTLVEKKLSILDVCIRDESYGSHVEQIANVKQRGANLIHLHQTSADIHPRIAPLALLQRFYIDVAAVAIALGINPDKPAGLKKVTQTL” stands “soluble”. Under “MGSDKIHHHHHHMLKRLLDYNDGEEMDIVVLIKNSQLRRNKKDKLFLAMQFGDGSGEIRGNYWDASHQDAATFSTGTIVELNGKREEYQGRPQIRIYSLRVVGPQEGYSLDEFIKSAPETTNDMKGEIDDFVKQIQNRTWRSIVEYLLKKWDKRFFDYPAGKSNHHALRGGLAYHTLAMLKDARGLADNYEQINRSLLYAGCILHDMGKVQELTGPAATQYTIEGNLVGHLVLIDEQIMLAAQDLKIDLESEDLLLLRHMVLSHHGKFEYGSPKLPALLEAEILHRIDDLDAMVYAVTNALQHTGKGTFTEPLQSQDGKRYYRPKNDPELDQAKNLE” stands “not soluble”; under “MGSDKIHHHHHHMLKKQLFADRLLAQMPSLRALRCFVTAARYESFTQAAEVLCVTQAAVSRQIKELEDSLDVALFERTGRHIALTDAGRILYNASYLSIMNIAEAAEAVRRTDKHALMICVSHTFSALWLSSRLPAFRERFPDIRLNLIVTEHFMELDGLIEPDVIITKNPPREPEFDVEPMFHDIVYPVCSPAFHERHFHGRSLKPLDLLSRPTLNLSMLGRAQVCEHVDWRVWRNWFQQGDGTDTLTENKYLESNDYRLLVAQAEAGEGTLLGWHHLVHRQIDQGILMRPVQDVLVFRDRHHYLITHRNAQPRPEYQQFRQWLNDEVGVMMRGWLDAGVEGEQ”, “not soluble”; under “MVNQEKTLDVGFTHADFAALLDRYDYHFNPGDIVAGTVFSIEPKGALIDIGAKTAAYIPIQEMSINRIESPEEVLQPNETREFFILADENEEGQLTLSIRRIEYMRAWERVRQLQAEDATVRSQVFATNRGGALVRIEGLRGFIPGSHISTRVNKEELVGEELPLKFLEVDEERNRLVLSHRRALVERKMNKLEVGEVVVGTVRGIKPYGAFIDIGGVSGLLHISEISHDHIDTPHSVFNVNDQVKVMIIDLDAERGRISLSTKQLEPEPGDMVKNPQLVYEKAEEMAERYRQQLLQQQQQAAGETPEEGMEDIPEATEDDSPAPILQEALEHHHHHH”, “not soluble”. Regarding “MEGLLIDYVQPGSIAEELEIEAGDRLVAINGQDLRDIIDFSFYAHDEELALEIVKPSGDHWEAEIERDGDEPLGLVFAPPVPAQCGNKCVFCFVHQLPLEHHHHHH”, the “soluble on expression in E. coli” value is reported as “soluble”. Consider “MGSDKIHHHHHHMQFEPALQQGRLVKRYKRFLADIKLADGSEMTIHCPNTGSMRNCLFPGEAVWFSTSANPKRKYAYTWELMGTPNGGFIGIHSGSANALAEEAIHSGIIKELTGYDTLSREVKYGDENSRIDILLQGAQKPDCYIEVKSCTLLEDGQGFFPDAVSLRGQKHLRELMHMANLGHRAVLLFVVQHSEIFSVAPAAHIDHEYANLLKKATLSGVEVLAYRCEMSPTEIRLAQACPVRV”, for which the “soluble on expression in E. coli” value is listed as “not soluble”. For the sequence “GPGSMQTAHAHTMTAQMKVLKPKTVFDNRPDEARKPIKLILLGDSAVGKSKLVERFLMQRYIPVQMSTYALTLYRYDFVTEDGEEVDVDIWDTAGQERFATVHPSYYHDAHACILVFDSTRKATYKNLEKWLSEMRVYREHIPCLVACNKIDTDPSVTTKSFAFAEKHNFPLYYVSAADGSNVVQLFESAISTAAAYKKNPAKDDFMTQVIGILKEDKTAAGASAVSS”, the “soluble on expression in E. coli” value was “soluble”. For “GGGGGGMADLFSTVQEKVAGKDVKIVFPEGLDERILEAVSKLAGNKVLNPIVIGNENEIQAKAKELNLTLGGVKIYDPHTYEGMEDLVQAFVERRKGKATEEQARKALLDENYFGTMLVYKGLADGLVSGAAHSTADTVRPALQIIKTKEGVKKTSGVFIMARGEEQYVFADCAINIAPDSQDLAEIAIESANTAKMFDIEPRVAMLSFSTKGSAKSDETEKVADAVKIAKEKAPELTLDGEFQFDAAFVPSVAEKKAPDSEIKGDANVFVFPSLEAGNIGYKIAQRLGNFEAVGPILQGLNMPVNDLSRGCNAEDVYNLALITAAQAL”, the “soluble on expression in E. coli” value is “soluble”. In the case of “MTRKPLTLTGSALAVLRALVERGPSTRPQLGQDLGLSRPTMSAAMAELMEAGLVEPIGSVQGGMGRRAVEYRVATHAGHVIAVDAGSTHIRLRLSTLDRRLLHASLHPLPNSQYSLTPQISSVVADAVAEALEKTEVDWGPLLAMVIAIPTRVVGPEGDTAATDQEVIFTNFTPPPQVDCTLVNNVNCAAVAEYHYGAARGHQTFAFLQVGVKIGLGLMLNGQILPGVNGAAGEIGHITFPFAPGLTPVPGEAERYIGTEAFMARVRADWPKGSGRPPADTYELLARAGEGDAAALRHVEGHAAEIGAVIAICVSVIDPGLVVLGGGYGASPLLRPKVEEVVRHLAFPAEITTSTLAAEATVLGAERLAVDRAVSVLLGLPA”, the “soluble on expression in E. coli” value is given as “not soluble”. For the sequence “MGSDKIHHHHHHMKLGYCSITWGGVVGHPGGVTSVKDLFYLTHGSMKDAIHDIASVGYEGVEMFDGNLAEYADKPEVLKELLNSSGVSLTSVYTGANFIYADILPDELHRIHRSAELAANFGADRLVVGGGARRAAGTTDEDYHRLGRALDSVTDIAESFGLSASYHPHLTTIVESPDELDKLMPLTRIGFCPDTAHLAAGGADPAAVIRKYPDRIRHVHLKDFRQDPFTFLPLGQGELDFPDILAAIRESGYDSWLMVELDNYDGDPREAAELSMKYLEKLL”, the “soluble on expression in E. coli” value is “not soluble”. Regarding “MAHHHHHHMPLTDEIQLEQLAPTIKGDASWSTGPIYVVCDVGGTNARVGFARAAQHEGSGLHIIYVRFRVTKRDIRQLLEFFDEVLQHLKKNLPYRAGPFLRRVASGAVSVPGPLTNGQLAGPFSNLKGIARLADYPVELFPRGRSALLNDLEAGSYGVLALSNAGMLSDYFKVMWKGTQWDALSEGKPVGSTIGHGRCMVVAPGTGVGSSLIHYVGVSDSYVVLALECGCLSMSWCANEDSKYVQALAGYMASKARVKGLDSTVAPIWEAAANGSGLEFNYAYEKEGPKASAPLKSAPEVAKLAKAGSDPAAVAAMDRLYKNLIGLTAETTMQFLPLTCVLMGDSIVSNSFYFDNPENVKKLQARINEHTMERQLKFLSRTTFLRQVRSVNINLLGCLEFGSQLSNRADQLAPTKSNL”, the “soluble on expression in E. coli” value is “not soluble”. With “MSLPVCYYLDATGGDDNNSGLAPDEAWKSLEKLRGVKLLPGNKVLLKRGEVFNGELEITGQGIPEDRIYIDAYGDDERKPCIVGYDTSLYAARICNSDYITMQNLEIVNTGRQPLPYRSGLKIECMDYGVSQNIVVNNVTVRDVNGSLVKEKGGGCGIYIVNGGEKKISTFNRLTIENCHILRCTRNAMIWAAYSDRQNWHPSKHTVIRGNLIEEVPGDGIVPIGCDSTLIEYNVMRDCPDMLPDTEAAAGIWPWSCDNTLVQFNEVSGHKAPWDAQGFDSDWNCRGTVIQYNYSHDNYGGLVLVCNDGTADASFNVGNLGTIVRYNVSIGDGVRPEPTRAGMFSPAVHLAGPVKDSRITRNIIHVNRKPAADIDRTMITLDSWGGYPDSTFISGNIFYAPESSRFQLTESTHNFFEGNYYLGRFEKLPEDGKACQSAEIYQKEVLAKDENGYQGLALLMDTVEVTGVKGVFVNKEAIENFFSRLEKEGHHHHHH”, the “soluble on expression in E. coli” value is recorded as “soluble”.

Consider “SANKGQQPPYLHLAELTASQFLDIWKHFDADGNGYIEGKELDNFFSQLEIARRGAGVDPSNAAFKGRMTEFMQKFDKNKDGRIEMSELAQILPTEENFLLCFRQFVGSSTEFMAAWRKYDTDRSGFIEANELKGFLSDLLKKANRHYDDQKLQEYTQTILKMFDLNGDGKLGLSEMARLLPVQENFLLKFQGVRLSAEQFNAIFTYYDKDGNGYIDEQELDALLKDLYEKNNKEVDSKSLTGYKQSIMALSDGGKLYRSELEIVLCRDPML”, for which the “soluble on expression in E. coli” value is “soluble”. With “MGEEKEIRIIVLEDGEHLESVIRKIEKGWIVRFKRGSSLLGKKVKVFTSICPGNSLEWSEGKDHLAVYCQVECKEAGSFRYWFKIEDSEERGSGYFLVMPELKINGKCLPLDGIACQTYLTKLLGPLSEWKERLEVAHQTGYNMIHLTPIHELGISNSSYSLSDHHSLIKTIQSQDQKFGFEDVQALVGDLERSWNILTVQDVVWNHAAKNATWLLEHPESAYNCLNSPHLRPAYVIDRVYHEFGKQIGEGVWEHRGVPPVVDNIHHVNAIEYLLRAEVLPKADLHEFYQVDLKAMVNLFEVFIKQSSGPTTNPLDGEDVEIEQDLECRRFGNTVDFERSARIFNRHRGDAKSEEERVEKCVRSFEEALNNKNLEAARESWEVILAGLAAVMGGITYERIADNGPKKGLVSPENPLTTDYFLHLEADLGWKSEEKFAYDPEKSKFLMAFNGWVMSSDPMKNFALKESQVYLRRELVCWGDSVKLNYGNKEADSPFLWQYMKEYTQQAARIFHGLRIDNAHGTPIHVAEKLLKTAREVRPDIYVFAELFTGSEHADNMFVNRLGISSLIREAQSAHDSHEQGRLVYRYGGDCVGAFKQKSARLAPKSIAHGLFLDQSHDNPSPIHTRSPFDILPTAAMLTMASCAVGSNRGYDELIRDHIHVVSEKRPYASWCRPDQVSRSQGIIEGRNLLNKLHTWLAEHGYSQVFVDQMNSDIVGITRHNPRTHETVVVVSHTSFSKNYIDWPGGLKHIPIGGVLENVIFEMKLKKVQEEWGTEDPDVLIGLKNYEMEIRENVNLDNGTMFKVHDGYIELTNFPTGSVVGFKIRPSDEATKAFNMIHNSITPEQSEFDSALSRLTYQSFPNLLFHCESEDYATIQQGGYDVPNFGKFVYCGLQGLVPVLEKIRDDNDLGHPLCQNLRDGTWICDYIVGRLAKFEKLGEVSEAIRKFFAPLDHVPYYLRPCYFELLVSYIYGKIRKEALKRMAPQISSSSALVRHLAISTLSFLGYIPGAGLAPIPTSLQIEDQYPSSLAAGLSHFAVGIWRNWGRDTFIALPGCLLSTGRFQEARQIILSFAGAIRHGLIPNLLAEGIGARYNCRDATWFWLVSIVKYVESAPNGVGILEDPVRRIYPNDDSVYGEGEVQQMLIETIYEALDKHFAGIDYRERSAGPQIDEQMRDEGFQVTAGVSRTTGFIYGGNRWNCGTWMDKMGSSERAGNKGEPATPRDGAAVELQGLAYRALKSLKNWKEQGVIQRSGVSDEWTWGFWAQKIRENFEKEFFVDKDSYAEFVNRREIIKDSVGSTLGFTDFQLRCNFGIALAVAPDLMDPKKAWKALDSAEVLLGPLGMKTLDPTDWAYNGYYNNDDDGTDKKTAKGWNYHQGPEWLFVAGYYLQARLRIGDILGGSEKQYAIRQVQERLGNAYKHIISSPWRSLPELTNADGEYCMQSCAAQAWSVGCLIEACVKLNTIEG”, the “soluble on expression in E. coli” value was “not soluble”. For the sequence “MLSFPRPHSLVEGVVSAIRREIVSGRLPAESKMPTEHELADQFSVSRSVVREAISQLKADGVLVIRRGSGSFVSQTPGGTVFRLPGNEDHSAGLAKLFELRSWIEIQVASVAAQRHTDADLKRLSDAMLLMESNAGNFEISSKADCEFHCAIVAACKNEYLTAFHDFLGSQLIQARFMAWENSSKLEIGPSGAIREHREIFDAIAKRNPSEAAHCARMHLKAAALRLNIDLAD”, the “soluble on expression in E. coli” value is given as “not soluble”.

For the origin of these results see the DeepSol protein solubility set.
